Results from patent publication US20100203046A1 (Biogen, published 2010).
Read-outs that look alike come from different tables or passages of the source. Values belong to the binder of their own block, whether it stands above or below them.

Assays:
[1] = biological target: T1, human FcγRI (CD64) on IFNγ-activated U937 cells (human, UniProt P12314 16-374); assay: CD64 bridging assay, purified
T1 construct: whole, on cells; also called FcγR1

[2] = biological target: T2, human C1q (Sigma C0660) (human, UniProt P02745 23-245; P02746 28-253; P02747 29-245); assay: C1q ELISA on CD2, purified
T2 construct: Bought protein; also called complement protein C1q
T2 sequence (P02745 23-245 limits assumed, chain 1 of 3): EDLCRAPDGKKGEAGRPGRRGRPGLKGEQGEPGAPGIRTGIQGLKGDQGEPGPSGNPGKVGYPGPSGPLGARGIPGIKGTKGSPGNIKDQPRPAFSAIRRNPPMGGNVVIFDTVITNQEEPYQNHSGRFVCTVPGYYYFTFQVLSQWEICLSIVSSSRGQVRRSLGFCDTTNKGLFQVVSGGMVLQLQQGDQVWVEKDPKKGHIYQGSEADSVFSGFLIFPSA
T2 sequence (P02746 28-253 limits assumed, chain 2 of 3): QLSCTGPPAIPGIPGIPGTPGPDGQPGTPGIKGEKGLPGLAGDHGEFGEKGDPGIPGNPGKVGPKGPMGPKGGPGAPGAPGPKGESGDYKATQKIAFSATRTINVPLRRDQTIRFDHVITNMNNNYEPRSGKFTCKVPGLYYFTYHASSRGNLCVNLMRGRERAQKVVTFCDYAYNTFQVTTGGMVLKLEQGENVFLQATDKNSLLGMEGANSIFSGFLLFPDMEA
T2 sequence (P02747 29-245 limits assumed, chain 3 of 3): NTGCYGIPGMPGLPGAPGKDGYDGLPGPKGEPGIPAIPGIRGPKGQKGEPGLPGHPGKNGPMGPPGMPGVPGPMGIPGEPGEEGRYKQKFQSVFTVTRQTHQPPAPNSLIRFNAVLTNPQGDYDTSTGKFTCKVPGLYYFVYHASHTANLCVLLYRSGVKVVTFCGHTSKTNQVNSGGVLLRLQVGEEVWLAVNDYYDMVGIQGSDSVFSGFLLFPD
Experimental: (§1) The C1q binding assay was performed by coating 96 well Maxisorb ELISA plates (Nalge-Nunc Rochester, N.Y., USA) with 50 μl recombinant soluble human CD2 at 10 μg/ml overnight at 4° C. in PBS. The wells were aspirated and washed three times with wash buffer (PBS, 0.05% Tween 20) and blocked for >1 h with 200 μ/well of block/diluent buffer (0.1 M Na₂HPO₄, pH 7, 0.1 M NaCl, 0.05% Tween 20, 0.1% gelatin). The antibody to be tested was diluted in block/diluent buffer starting at 15 μg/ml with 3-fold dilutions. 50 μl were added per well, and the plates incubated for 2 h at room temperature. After aspirating and washing as above, 50 μl/well of 2 μg/ml of Sigma human C1q (C0660) diluted in block/diluent buffer was added and incubated for 1.5 h at room temperature. After aspirating and washing as above, 50 μl/well of chicken anti human C1q (Cedarlane laboratories CL2101AP), diluted 2,000-fold in block/diluent buffer, was added. After incubation for 1.5 h at room temperature, the wells were aspirated and washed as above. 50 μl/well of donkey F(ab′)₂ anti chicken IgY HRP conjugate (Jackson ImmunoResearch 703-036-155) diluted to 1:5,000 in block/diluent was then added, and the wells incubated for 1 h at room temperature. After aspirating and washing as above, 100 μl TMB substrate (420 μM TMB, 0.004% H₂O₂ in 0.1 M sodium acetate/citric acid buffer, pH 4.9) was added and incubated for 2 min before the reaction was stopped with 100 μl 2 N sulfuric acid. The absorbance was read at 450 nm with a Softmax P instrument, and Softmax software was used to determine the relative binding affinity (C value) with a 4-parameter fit.

[3] = biological target: T3, human FcγRIII (CD16), CD16a (F158), on CD16-transfected Jurkat cells (human, UniProt P08637 17-254); assay: CD16 bridging assay, purified
T3 construct: whole, on cells
T3 sequence (P08637 17-254): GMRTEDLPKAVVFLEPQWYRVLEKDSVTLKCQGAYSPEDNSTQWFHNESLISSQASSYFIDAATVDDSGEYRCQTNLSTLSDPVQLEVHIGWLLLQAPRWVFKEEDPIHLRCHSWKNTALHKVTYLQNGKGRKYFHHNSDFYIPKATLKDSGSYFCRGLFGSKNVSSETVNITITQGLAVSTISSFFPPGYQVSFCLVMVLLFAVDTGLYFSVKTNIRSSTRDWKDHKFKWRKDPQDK

[4] = biological target: T3, human FcγRIII (CD16), CD16a (F158), on …; assay: CD16 bridging assay, transient
[5] = biological target: T4, GST-tagged FcγRIII, CD16a (V158) (UniProt P08637 17-208, limits assumed); assay: AlphaScreen competition vs huIgG1 beads, purified
T4 construct: the canonical entry carries F there; Captured by biotinylated anti-GST mAb on streptavidin donor beads; also called GST-FcγRIII; not shown: GST tag
T4 sequence (P08637 17-208 F176V limits assumed): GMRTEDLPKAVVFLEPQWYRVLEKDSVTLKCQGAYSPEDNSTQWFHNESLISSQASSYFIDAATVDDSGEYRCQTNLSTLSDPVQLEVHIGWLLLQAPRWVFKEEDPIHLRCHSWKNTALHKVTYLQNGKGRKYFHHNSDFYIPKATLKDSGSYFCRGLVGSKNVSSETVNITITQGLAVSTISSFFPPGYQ
Experimental: The relative binding affinities to FcγRIII (CD16), of the variant antibodies, was determined using an AlphaScreen assay (Amplified Luminescent Proximity Homogeneous Assay, PerkinElmer, MA, USA). Laser excitation of a donor bead excites oxygen, which if in close proximity to an acceptor bead generates a cascade of chemiluminescent events, ultimately leading to fluorescence emission at 520-620 nm. […] The reaction was carried out for one hour in a 25 μl volume and plates were read in the Fusion Alpha reader (PerkinElmer).

[6] = biological target: T3, human FcγRIII (CD16), CD16a (F158), on …; assay: CD16 bridging assay, transient; remark: listed apart in the source
[7] = biological target: T3, human FcγRIII (CD16), CD16a (F158), on …; assay: CD16 bridging assay, transient; remark: listed apart in the source
[8] = biological target: T3, human FcγRIII (CD16), CD16a (F158), on …; assay: summary of Table 3 assays
[9] = biological target: T2, human C1q (Sigma C0660); assay: C1q ELISA on CD2, transient
Experimental: as §1

[10] = biological target: T3, human FcγRIII (CD16), CD16a (F158), on …; assay: CD16 bridging assay, transient; remark: listed apart in the source
[11] = biological target: T3, human FcγRIII (CD16), CD16a (F158), on …; assay: CD16 bridging assay, purified; remark: listed apart in the source

T1 sequence (P12314 16-374): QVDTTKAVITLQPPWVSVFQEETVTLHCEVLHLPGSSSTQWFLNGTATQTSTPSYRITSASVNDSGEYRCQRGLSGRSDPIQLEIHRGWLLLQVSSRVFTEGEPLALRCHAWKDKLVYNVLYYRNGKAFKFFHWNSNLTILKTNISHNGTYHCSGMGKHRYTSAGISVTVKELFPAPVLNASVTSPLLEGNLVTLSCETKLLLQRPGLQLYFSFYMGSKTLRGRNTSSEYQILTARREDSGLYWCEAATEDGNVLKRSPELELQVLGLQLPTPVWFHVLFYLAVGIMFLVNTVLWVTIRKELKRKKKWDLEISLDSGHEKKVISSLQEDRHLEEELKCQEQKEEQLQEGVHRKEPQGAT

B1: chCB6-huIgG1 I332H (antibody, name in EU numbering)
heavy: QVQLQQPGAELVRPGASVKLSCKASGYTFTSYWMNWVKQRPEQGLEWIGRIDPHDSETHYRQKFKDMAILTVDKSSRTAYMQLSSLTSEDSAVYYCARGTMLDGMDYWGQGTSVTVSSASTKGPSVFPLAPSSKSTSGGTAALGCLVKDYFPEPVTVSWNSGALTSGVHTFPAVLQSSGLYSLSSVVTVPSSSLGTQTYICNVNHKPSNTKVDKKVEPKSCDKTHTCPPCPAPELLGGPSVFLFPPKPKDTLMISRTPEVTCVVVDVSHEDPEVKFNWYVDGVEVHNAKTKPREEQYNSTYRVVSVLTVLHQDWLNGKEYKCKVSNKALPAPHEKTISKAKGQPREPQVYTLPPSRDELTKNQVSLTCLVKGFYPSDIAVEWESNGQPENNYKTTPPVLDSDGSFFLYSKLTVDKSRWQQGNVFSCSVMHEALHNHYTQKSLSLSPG
light: QIVLTQSPAIMSASPGEKVTMTCRASSSVSHMHWYQQKSGTSPKRWIYDTSKLASGVPARFSGSGSGTSYSLTISSVEAEDAATYYCQQWSSNPLTFGAGTKLELKRTVAAPSVFIFPPSDEQLKSGTASVVCLLNNFYPREAKVQWKVDNALQSGNSQESVTEQDSKDSTYSLSSTLTLSKADYEKHKVYACEVTHQGLSSPVTKSFNRGEC
notes: copies: 2 + 2
binding result [1]: binds
binding result [2]: binds
fold decrease in binding vs WT [3]: 2 fold

B2: chCB6-huIgG1 I332Q (antibody, name in EU numbering)
heavy: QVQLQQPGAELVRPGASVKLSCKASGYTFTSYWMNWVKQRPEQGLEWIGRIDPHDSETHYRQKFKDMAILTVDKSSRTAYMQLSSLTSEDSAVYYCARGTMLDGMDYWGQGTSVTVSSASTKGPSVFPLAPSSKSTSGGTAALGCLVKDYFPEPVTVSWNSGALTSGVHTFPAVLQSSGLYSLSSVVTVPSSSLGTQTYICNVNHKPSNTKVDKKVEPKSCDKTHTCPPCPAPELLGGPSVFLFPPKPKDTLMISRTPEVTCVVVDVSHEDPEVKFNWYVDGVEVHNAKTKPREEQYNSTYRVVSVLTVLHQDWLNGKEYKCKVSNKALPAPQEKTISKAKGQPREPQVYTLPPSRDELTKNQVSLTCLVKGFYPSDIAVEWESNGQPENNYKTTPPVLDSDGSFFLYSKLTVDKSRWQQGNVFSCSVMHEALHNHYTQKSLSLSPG
light: B1 light
notes: copies: 2 + 2
binding result [1]: binds
binding result [2]: binds
fold increase in binding vs WT [4]: 2 fold
fold increase in binding vs WT [3]: 2 fold

B3: chCB6-huIgG1 L328Q (antibody, name in EU numbering)
heavy: not shown
light: B1 light
notes: copies: 2 + 2
binding result [1]: binds
binding result [2]: no binding
fold decrease in binding vs WT [4]: 3 fold
fold decrease in binding vs WT [3]: 2 fold

B4: chCB6-huIgG1 S239D (antibody, name in EU numbering)
heavy: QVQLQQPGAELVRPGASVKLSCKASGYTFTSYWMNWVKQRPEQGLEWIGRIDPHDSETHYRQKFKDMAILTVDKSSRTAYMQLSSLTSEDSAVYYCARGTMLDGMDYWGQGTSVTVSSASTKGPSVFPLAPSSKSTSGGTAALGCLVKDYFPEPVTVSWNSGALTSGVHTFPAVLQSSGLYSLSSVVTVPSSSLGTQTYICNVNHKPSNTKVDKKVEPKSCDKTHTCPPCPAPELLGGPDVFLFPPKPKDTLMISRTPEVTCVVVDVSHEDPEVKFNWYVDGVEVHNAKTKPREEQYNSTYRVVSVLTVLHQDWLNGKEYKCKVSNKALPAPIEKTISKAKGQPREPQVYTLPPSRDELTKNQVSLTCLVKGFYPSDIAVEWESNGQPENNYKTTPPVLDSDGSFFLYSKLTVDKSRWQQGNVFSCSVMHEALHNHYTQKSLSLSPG
light: B1 light
notes: copies: 2 + 2
binding result [1]: binds
fold decrease in binding vs WT [2]: 2 fold
fold increase in binding vs WT [5]: 9 fold
fold increase in binding vs WT [4]: 6 fold
fold increase in binding vs WT [3]: 6 fold

B5: chCB6-huIgG1 A330H (antibody, name in EU numbering)
heavy: not shown
light: B1 light
notes: copies: 2 + 2
binding result [6]: binds

B6: chCB6-huIgG1 E294T (antibody, name in EU numbering)
heavy: not shown
light: B1 light
notes: copies: 2 + 2
fold decrease in binding vs WT [7]: 8 fold

B7: chCB6-huIgG1 F241Q (antibody, name in EU numbering)
heavy: not shown
light: B1 light
notes: copies: 2 + 2
fold decrease in binding vs WT [8]: > 10 fold
fold decrease in binding vs WT [4]: 30 fold

B8: chCB6-huIgG1 G236A (antibody, name in EU numbering)
heavy: not shown
light: B1 light
notes: copies: 2 + 2
fold decrease in binding vs WT [6]: 2 fold

B9: chCB6-huIgG1 H268D (antibody, name in EU numbering)
heavy: not shown
light: B1 light
notes: copies: 2 + 2
fold increase in binding vs WT [6]: 3 fold

B10: chCB6-huIgG1 H268P (antibody, name in EU numbering)
heavy: not shown
light: B1 light
notes: copies: 2 + 2
fold decrease in binding vs WT [6]: 3 fold

B11: chCB6-huIgG1 L234Q (antibody, name in EU numbering)
heavy: not shown
light: B1 light
notes: copies: 2 + 2
fold decrease in binding vs WT [6]: 5 fold

B18: chCB6-huIgG1 S239E (antibody, name in EU numbering)
heavy: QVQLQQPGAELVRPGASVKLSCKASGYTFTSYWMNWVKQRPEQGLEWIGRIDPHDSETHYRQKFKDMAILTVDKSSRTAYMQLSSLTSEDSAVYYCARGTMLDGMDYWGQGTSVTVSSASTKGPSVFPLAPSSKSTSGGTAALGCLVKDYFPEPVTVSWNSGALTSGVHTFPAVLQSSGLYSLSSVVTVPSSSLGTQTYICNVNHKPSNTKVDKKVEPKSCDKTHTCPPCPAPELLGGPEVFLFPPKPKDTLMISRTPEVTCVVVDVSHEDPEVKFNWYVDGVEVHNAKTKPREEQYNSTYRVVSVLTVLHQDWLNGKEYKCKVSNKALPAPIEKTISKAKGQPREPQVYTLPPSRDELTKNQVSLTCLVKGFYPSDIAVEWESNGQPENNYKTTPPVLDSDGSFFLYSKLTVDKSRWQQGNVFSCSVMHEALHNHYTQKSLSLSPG
light: B1 light
notes: copies: 2 + 2
binding result [1]: binds
fold decrease in binding vs WT [2]: 2 fold
fold increase in binding vs WT [5]: 8 fold
fold increase in binding vs WT [4]: 4 fold
fold increase in binding vs WT [3]: 3 fold

B19: chCB6-huIgG1 S239E/I332D (antibody, name in EU numbering)
heavy: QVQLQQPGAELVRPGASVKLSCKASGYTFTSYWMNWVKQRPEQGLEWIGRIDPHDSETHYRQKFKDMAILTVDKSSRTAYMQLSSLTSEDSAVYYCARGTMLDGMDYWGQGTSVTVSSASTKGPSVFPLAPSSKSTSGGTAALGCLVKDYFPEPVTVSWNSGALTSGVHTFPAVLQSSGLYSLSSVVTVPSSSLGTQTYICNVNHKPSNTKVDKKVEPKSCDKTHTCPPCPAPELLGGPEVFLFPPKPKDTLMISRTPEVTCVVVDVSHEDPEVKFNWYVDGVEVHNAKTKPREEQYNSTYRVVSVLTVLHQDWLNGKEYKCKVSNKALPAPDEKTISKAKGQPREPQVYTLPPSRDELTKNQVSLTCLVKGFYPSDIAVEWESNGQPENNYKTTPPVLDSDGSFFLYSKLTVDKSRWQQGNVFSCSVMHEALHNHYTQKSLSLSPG
light: B1 light
notes: copies: 2 + 2
binding result [2]: binds
fold increase in binding vs WT [5]: 7 fold
fold increase in binding vs WT [10]: 3 fold
fold increase in binding vs WT [11]: 8 fold

B20: chCB6-huIgG1 S239E/I332E (antibody, name in EU numbering)
heavy: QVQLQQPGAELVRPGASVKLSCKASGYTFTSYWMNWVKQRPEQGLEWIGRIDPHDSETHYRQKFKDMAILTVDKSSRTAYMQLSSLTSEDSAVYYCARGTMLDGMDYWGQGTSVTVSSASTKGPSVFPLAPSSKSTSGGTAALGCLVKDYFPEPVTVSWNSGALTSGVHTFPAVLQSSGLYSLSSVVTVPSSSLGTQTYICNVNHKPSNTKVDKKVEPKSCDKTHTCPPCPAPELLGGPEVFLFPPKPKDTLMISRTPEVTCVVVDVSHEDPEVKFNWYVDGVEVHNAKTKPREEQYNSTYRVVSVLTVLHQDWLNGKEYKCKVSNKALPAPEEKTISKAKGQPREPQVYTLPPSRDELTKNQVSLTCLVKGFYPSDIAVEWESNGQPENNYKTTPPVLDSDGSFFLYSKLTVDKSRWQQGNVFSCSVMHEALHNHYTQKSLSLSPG
light: B1 light
notes: copies: 2 + 2
binding result [2]: binds
fold increase in binding vs WT [5]: 10 fold
fold increase in binding vs WT [10]: 3 fold
fold increase in binding vs WT [11]: 6 fold

B25: chCB6-huIgG1 I332D (antibody, name in EU numbering)
heavy: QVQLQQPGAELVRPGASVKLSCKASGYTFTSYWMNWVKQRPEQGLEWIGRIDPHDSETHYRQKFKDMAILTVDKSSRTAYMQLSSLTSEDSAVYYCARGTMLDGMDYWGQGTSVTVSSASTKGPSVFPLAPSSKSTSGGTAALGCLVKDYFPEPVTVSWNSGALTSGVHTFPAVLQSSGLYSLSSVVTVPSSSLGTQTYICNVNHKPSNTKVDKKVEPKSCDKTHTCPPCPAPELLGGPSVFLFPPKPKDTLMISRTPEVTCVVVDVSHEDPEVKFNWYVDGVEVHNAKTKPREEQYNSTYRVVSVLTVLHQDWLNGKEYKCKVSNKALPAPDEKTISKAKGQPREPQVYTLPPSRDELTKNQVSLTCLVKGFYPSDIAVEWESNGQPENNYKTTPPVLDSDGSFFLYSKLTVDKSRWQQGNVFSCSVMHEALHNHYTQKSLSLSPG
light: B1 light
notes: copies: 2 + 2
binding result [1]: binds
binding result [2]: binds
fold increase in binding vs WT [5]: 4 fold
fold increase in binding vs WT [4]: 15 fold
fold increase in binding vs WT [3]: 9 fold

B26: chCB6-huIgG1 E294N (antibody, name in EU numbering)
heavy: not shown
light: B1 light
notes: copies: 2 + 2
fold decrease in binding vs WT [7]: 8 fold
fold decrease in binding vs WT [9]: 7 fold

B29: chCB6-huIgG1 R301S (antibody, name in EU numbering)
heavy: not shown
light: B1 light
notes: copies: 2 + 2
binding result [7]: binds
binding result [9]: binds

B30: chCB6-huIgG1 R301T (antibody, name in EU numbering)
heavy: not shown
light: B1 light
notes: copies: 2 + 2
binding result [7]: binds
binding result [9]: binds

Next, values leading:

fold decrease in binding vs WT [6]: 3 fold
B12: chCB6-huIgG1 L328T (antibody, name in EU numbering)
heavy: not shown
light: B1 light
notes: copies: 2 + 2

fold decrease in binding vs WT [7]: 5 fold
binding result [9]: binds
B13: chCB6-huIgG1 R301A (antibody, name in EU numbering)
heavy: not shown
light: B1 light
notes: copies: 2 + 2

fold increase in binding vs WT [10]: 4 fold
B14: chCB6-huIgG1 S239D/A378W (antibody, name in EU numbering)
heavy: not shown
light: B1 light
notes: copies: 2 + 2

fold increase in binding vs WT [10]: 4 fold
B15: chCB6-huIgG1 S239D/A378Y (antibody, name in EU numbering)
heavy: not shown
light: B1 light
notes: copies: 2 + 2

fold increase in binding vs WT [10]: 3 fold
B16: chCB6-huIgG1 S239D/H435G (antibody, name in EU numbering)
heavy: not shown
light: B1 light
notes: copies: 2 + 2

fold increase in binding vs WT [10]: 3 fold
fold increase in binding vs WT [11]: 6 fold
B17: chCB6-huIgG1 S239D/H435S (antibody, name in EU numbering)
heavy: not shown
light: B1 light
notes: copies: 2 + 2

binding result [6]: no binding
B21: chCB6-huIgG1 S239H (antibody, name in EU numbering)
heavy: not shown
light: B1 light
notes: copies: 2 + 2

binding result [6]: no binding
B22: chCB6-huIgG1 S239P (antibody, name in EU numbering)
heavy: not shown
light: B1 light
notes: copies: 2 + 2

fold decrease in binding vs WT [8]: > 10 fold
fold decrease in binding vs WT [4]: 13 fold
B23: chCB6-huIgG1 S298N (antibody, name in EU numbering)
heavy: not shown
light: B1 light
notes: copies: 2 + 2

fold decrease in binding vs WT [7]: 5 fold
fold decrease in binding vs WT [9]: 4 fold
B24: chCB6-huIgG1 Y296Q (antibody, name in EU numbering)
heavy: not shown
light: B1 light
notes: copies: 2 + 2

fold decrease in binding vs WT [7]: 5 fold
binding result [9]: binds
B27: chCB6-huIgG1 R301K (antibody, name in EU numbering)
heavy: not shown
light: B1 light
notes: copies: 2 + 2

fold decrease in binding vs WT [7]: 5 fold
fold decrease in binding vs WT [9]: 3 fold
B28: chCB6-huIgG1 R301N (antibody, name in EU numbering)
heavy: not shown
light: B1 light
notes: copies: 2 + 2

binding result [7]: no binding
fold decrease in binding vs WT [9]: 3 fold
B31: chCB6-huIgG1 Y296T (antibody, name in EU numbering)
heavy: not shown
light: B1 light
notes: copies: 2 + 2
